The target of assay [1] is T1, Avi-tagged, biotinylated GDP-mannose transporter Vrg4 from Candida albicans (Candida albicans (SC5314 entry Q5A477), UniProt Q5A477).
T1 construct: also called biotinylated CaVrg4; source: S. cerevisiae strain BJ5460, purified as the untagged version, biotinylated using BirA ligase; not shown: Avi tag, C-terminal, kept
Put plainly: ELISA. The conditions noted are these: both partners purified.

Assay [2] has as its target GDP-mannose transporter Vrg4 from Candida albicans (Candida albicans, UniProt Q5A477).

GDP-mannose transporter Vrg4 from Candida albicans, sequence (Q5A477 34-371): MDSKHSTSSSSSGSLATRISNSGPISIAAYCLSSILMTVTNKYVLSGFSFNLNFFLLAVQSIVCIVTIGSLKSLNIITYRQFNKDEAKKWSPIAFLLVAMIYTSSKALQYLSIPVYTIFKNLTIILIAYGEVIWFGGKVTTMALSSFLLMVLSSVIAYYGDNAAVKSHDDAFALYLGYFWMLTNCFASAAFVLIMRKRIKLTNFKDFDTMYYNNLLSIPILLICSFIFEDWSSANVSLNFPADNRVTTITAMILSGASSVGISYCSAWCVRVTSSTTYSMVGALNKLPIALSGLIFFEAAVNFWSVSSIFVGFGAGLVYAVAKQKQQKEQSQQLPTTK
T1 sequence (Q5A477 34-371, one chain of several): as the sequence (Q5A477 34-371) above

B1: nanobody NB3 (VHH)
VHH: QVQLVESGGGLVQPGGSLRLSCAASGSISEINVMGWYRQAPGKQRELVARITTGGSTNYADSVKGRFTISRDNAKNTVYLQMNSLKPEDTAVYMCNAHRRVVMEWGPLGYDYWGQGTQVTVSS
notes: not shown: Myc, C-terminal, kept; His, C-terminal, kept
For the molecule B1, in assay [1], the dissociation constant (Kd) is about 3 nM.

B2: NB2 (VHH)
VHH: QVQLVESGGGLVQPGGSLRLSCAASRIKRNIMSMGWYRQAPGKQRELVATLLRGGVTNYADSVKGRFTISRDNAKNTLYLQMNSLKPEDTAVYYCTLKEQMFDTTYWGQGTQVTVSS
The molecule B2 came in with a Kd in assay [2] of 125 nM.

B3: nanobody NB4 (VHH)
VHH: QVQLVESGGGLVQAGGSLRLSCAASGRTFRSYTLGWFRQAPGKEREFVAAIKWSTDTTYYADSVKGRFTISGDNAKNTVYLQMNSLKPEDTAVYFCAARSLSTVIAGPEIPWPYNSWGQGTQVTVSS
notes: as for B1
In assay [1], B3 registered a Kd of about 10 nM.

B4: NB1 (VHH)
VHH: QVQLVESGGGLVQPGGSLRLSCAASGTSFTINVMAWYRQAPGKQRELVAGITSGGTTNYADAVKGRFAITSDNAKNTVYLQMNGLKSEDTAVYYCNAATTVPYPDYGFSLGTYDYEAWGQGTQVTVSS
Regarding B4, the affinity in assay [2], expressed as Kd, was 109 nM.

Values taken from paper PMC13342644, “Structural basis for transport and inhibition of nucleotide sugar transport in pathogenic fungi” (Nature Communications, 2026).
